Measured values taken from patent US20170247441A1 (Hoffmann-La Roche, published 2017).
Changes are numbered by the printed parent chain. In names and notes the source's numbering stands.

T1: human ANG2-RBD-Fc-region fusion (human, UniProt O15123 275-496, limits assumed)
T1 construct: not shown: Fc-region
T1 sequence: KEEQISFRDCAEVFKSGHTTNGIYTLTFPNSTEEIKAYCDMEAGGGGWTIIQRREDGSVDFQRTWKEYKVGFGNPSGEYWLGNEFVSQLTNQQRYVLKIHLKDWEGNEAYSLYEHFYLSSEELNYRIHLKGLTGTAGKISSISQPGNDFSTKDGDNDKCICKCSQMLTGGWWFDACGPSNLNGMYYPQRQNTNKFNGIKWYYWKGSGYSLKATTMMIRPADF

T2: ANG2 (R&D Systems, Cat#623-CF) (human, UniProt O15123 19-496)
T2 sequence: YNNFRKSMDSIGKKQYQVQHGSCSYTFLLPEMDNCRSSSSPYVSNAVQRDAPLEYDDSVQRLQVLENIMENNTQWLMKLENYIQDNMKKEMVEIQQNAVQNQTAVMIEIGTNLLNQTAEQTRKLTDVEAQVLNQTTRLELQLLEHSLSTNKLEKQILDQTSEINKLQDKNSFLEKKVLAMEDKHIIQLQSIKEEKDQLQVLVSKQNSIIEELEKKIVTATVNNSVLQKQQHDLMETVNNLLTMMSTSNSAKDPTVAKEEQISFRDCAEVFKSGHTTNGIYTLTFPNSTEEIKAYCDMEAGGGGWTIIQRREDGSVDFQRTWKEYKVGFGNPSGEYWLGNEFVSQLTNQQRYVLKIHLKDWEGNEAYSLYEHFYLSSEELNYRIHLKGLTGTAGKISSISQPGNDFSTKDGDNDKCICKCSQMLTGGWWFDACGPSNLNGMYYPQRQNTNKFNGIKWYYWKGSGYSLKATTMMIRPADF

B1: 0025 (Fab)
heavy: not shown
light: SYVLTQPPSVSVAPGQTARITCGGNNIGSKSVHWYQQKPGQAPVLVVYDDSDRPSGIPERFSGSNSGNTATLTISRVEAGDEADYYCQVWDSSSDHWVFGGGTKLTVLSSASTKGPSVFPLAPSSKSTSGGTAALGCLVKDYFPEPVTVSWNSGALTSGVHTFPAVLQSSGLYSLSSVVTVPSSSLGTQTYICNVNHKPSNTKVDKKVEPKSC
notes: CrossFab CL-CH1, valency 1; differences VH: T28N, T30V; VL: wt
B2: Xang2-0165 (bispecific antibody, human IgG1, kappa, L234A L235A)
heavy 1: not shown
light 1: B1 light with D50T
heavy 2: EVQLVESGGGLVQPGGSLRLSCAASGYDFTHYGMNWVRQAPGKGLEWVGWINTYTGEPTYAADFKRRFTFSLDTSKSTAYLQMNSLRAEDTAVYYCAKYPYYYGTSHWYFDVWGQGTLVTVSSASTKGPSVFPLAPSSKSTSGGTAALGCLVKDYFPEPVTVSWNSGALTSGVHTFPAVLQSSGLYSLSSVVTVPSSSLGTQTYICNVNHKPSNTKVDKKVEPKSCDKTHTCPPCPAPEAAGGPSVFLFPPKPKDTLMASRTPEVTCVVVDVSHEDPEVKFNWYVDGVEVHNAKTKPREEQYNSTYRVVSVLTVLAQDWLNGKEYKCKVSNKALGAPIEKTISKAKGQPREPQVYTLPPCRDELTKNQVSLWCLVKGFYPSDIAVEWESNGQPENNYKTTPPVLDSDGSFFLYSKLTVDKSRWQQGNVFSCSVMHEALHNAYTQKSLSLSPGK
light 2: not shown
notes: ANG2/VEGF bispecific CrossMab CL-CH1, valency for ANG2 1; ANG2 VH: S100dP, G100jA, T30A, T28N; VL: D50T; VEGF: wt2
B3: XAng2-0099 (antibody)
heavy: not shown
light: B1 light
notes: CrossMab CL-CH1, valency for ANG2 2; differences VH: S100dP, G100jA, T28N, T30A; VL: wt
B4: XAng2-0017 (Fab)
heavy: not shown
light: B1 light
notes: CrossFab CL-CH1, valency 1; VL: wt
B5: 0040 (Fab)
heavy: not shown
light: B1 light
notes: CrossFab CL-CH1, valency 1; differences VH: S100dP, G100jA, T28N, T30V; VL: wt
B6: 0060 (Fab)
heavy: not shown
light: B1 light with D50T
notes: CrossFab CL-CH1, valency 1; differences VH: S100dP, G100jA, T28N, T30A, D100bE; VL: D50T
B7: XAng2-0041 (Fab)
heavy: not shown
light: B1 light
notes: CrossFab CL-CH1, valency 1; differences VH: S100dP, G100jA, T28N, T30A; VL: wt
B8: XAng2-0156 (Fab)
heavy: not shown
light: B1 light with S1Q, Y2P, V3G, D50T, W97Y, G101T, L105V
notes: CrossFab CL-CH1, valency 1; differences VH: S100dP, G100jA, T28N, T30A, D100bS; VL: D50T
B9: Xang2-0166 (bispecific antibody, human IgG1, kappa, L234A L235A)
heavy 1: not shown
light 1: B1 light with D50T
heavy 2: B2 heavy 2
light 2: not shown
notes: ANG2/VEGF bispecific CrossMab CL-CH1, valency for ANG2 1; ANG2 VH: S100dP, G100jA, T30A, T28N, D100bS; VL: D50T; VEGF: wt2
B10: XAng2-0155 (Fab)
heavy: not shown
light: B1 light with S1Q, Y2P, V3G, D50T, W97Y, G101T, L105V
notes: CrossFab CL-CH1, valency 1; differences VH: S100dP, G100jA, T28N, T30A; VL: D50T
B11: 0074 (Fab)
heavy: not shown
light: B1 light
notes: CrossFab CL-CH1, valency 1; differences VH: S100dP, G100jA, T28N, T30A, D100bS; VL: wt
B12: 0027 (Fab)
heavy: not shown
light: B1 light
notes: CrossFab CL-CH1, valency 1; differences VH: T28N, T30K; VL: wt
B13: XAng2-0101 (antibody)
heavy: not shown
light: B1 light with D50T
notes: CrossMab CL-CH1, valency for ANG2 2; differences VH: S100dP, G100jA, T28N, T30A, D100bE; VL: D50T
B14: 0061 (Fab)
heavy: not shown
light: B1 light with D50T
notes: CrossFab CL-CH1, valency 1; differences VH: S100dP, G100jA, T28N, T30A, D100bT; VL: D50T
B15: XAng2-0090 (Fab)
heavy: not shown
light: B1 light with D50T
notes: as for B10
B16: 0057 (Fab)
heavy: not shown
light: B1 light
notes: CrossFab CL-CH1, valency 1; differences VH: S100dP, G100jA, T28N, T30A, D100bE; VL: wt
B17: 0028 (Fab)
heavy: not shown
light: B1 light
notes: CrossFab CL-CH1, valency 1; differences VH: T30K; VL: wt
B18: XAng2-0033 (Fab)
heavy: not shown
light: B1 light
notes: CrossFab CL-CH1, valency 1; differences VH: T28N, S100dP, G100jA; VL: wt
B19: XAng2-0026 (Fab)
heavy: not shown
light: B1 light
notes: CrossFab CL-CH1, valency 1; differences VH: T28N, T30A; VL: wt
B20: 0058 (Fab)
heavy: not shown
light: B1 light
notes: CrossFab CL-CH1, valency 1; differences VH: S100dP, G100jA, T28N, T30A, D100bT; VL: wt
B21: XAng2-0100 (antibody)
heavy: not shown
light: B1 light with D50T
notes: CrossMab CL-CH1, valency for ANG2 2; differences VH: S100dP, G100jA, T28N, T30A; VL: D50T
B22: XAng2-0075 (Fab)
heavy: not shown
light: B1 light with D50T
notes: as for B8
B23: 0042 (Fab)
heavy: not shown
light: B1 light
notes: CrossFab CL-CH1, valency 1; differences VH: S100dP, G100jA, T28N, T30K; VL: wt

Tests used:
[1] = molecular target: T1, human ANG2-RBD-Fc-region fusion; test: SPR, human ANG2-RBD-Fc captured, 1:1 model
[2] = molecular target: T1, human ANG2-RBD-Fc-region fusion; test: SPR, human ANG2; ANG2/VEGF bispecific CrossMab
[3] = molecular target: T1, human ANG2-RBD-Fc-region fusion; test: SPR, human ANG2; bivalent CrossMab, avidity
[4] = molecular target: T1, human ANG2-RBD-Fc-region fusion; test: SPR, human ANG2; bivalent CrossMab, avidity; remark: listed apart in the source
[5] = molecular target: T1, human ANG2-RBD-Fc-region fusion; test: SPR, human ANG2-RBD-Fc captured, 1:1 model; remark: listed apart in the source
Method: (§1) HBS-N (10 mM HEPES, 150 mM NaCl pH 7.4, GE Healthcare) was used as running buffer during the immobilization procedure. For the following kinetic characterization, sample and running buffer was HBS-P (10 mM HEPES, 150 mM NaCl pH 7.4, 0.05% Surfactant P20; GE Healthcare). The flow cell was set to 25° C.—and the sample block was set to 12° C.—and primed with running buffer twice prior to kinetic characterization.
(§2) Association was measured by injection of the Cross-Fabs in various concentrations in solution for 90 sec. at a flow rate of 90 μl/min starting with 300 nM in serial 1:3 dilutions. The dissociation phase was monitored for up to 600 sec. and triggered by switching from the sample solution to running buffer. All surfaces were regenerated by 60 sec. washing with a 3 M MgCl₂ solution at a flow rate of 5 μl/min. Bulk refractive index differences were corrected by subtracting the response obtained from an anti-human IgG antibody (Fc) surface. Blank injections were also subtracted (=double referencing). For calculation of KD and other kinetic parameters the Langmuir 1:1 model was used.

[6] = molecular target: T3, cynomolgus ANG2-RBD-Fc-region fusion (cynomolgus); test: SPR, cynomolgus ANG2-RBD-Fc captured, 1:1 model
T3 construct: domain: RBD
Method: as §1, §2

[7] = molecular target: T2, ANG2 (R&D Systems, Cat#623-CF); test: cell-based or functional assay

| Binder | koff [1] [s⁻¹] | kon [1] [M⁻¹ s⁻¹] | t1/2 [1] [s] | also measured |
| --- | --- | --- | --- | --- |
| B1 | 0.0702 | 1.87e+06 | 10 | – |
| B2 | – | – | – | Kd [2]: 4 nM; koff [2]: 0.00112 s⁻¹; kon [2]: 302000 M⁻¹ s⁻¹; t1/2 [2]: 619 s |
| B3 | – | – | – | koff [3]: 0.00011 s⁻¹; kon [3]: 2.61e+07 M⁻¹ s⁻¹; koff [4]: 0.00011 s⁻¹; kon [4]: 2.61e+07 M⁻¹ s⁻¹; t1/2 (S) [4]: 1.75 h |
| B4 | 0.0357 | 3.03e+06 | 19 | – |
| B5 | 0.00592 | 2.59e+06 | 117 | Kd [1]: 2.3 nM |
| B6 | 0.0786 | 3.72e+06 | 9 | – |
| B7 | 0.00317 | 3.85e+06 | 219 | koff [5]: 0.00317 s⁻¹; kon [5]: 3.85e+06 M⁻¹ s⁻¹; t½ [5]: 219 s; Kd [6]: 2 nM; koff [6]: 0.0036 s⁻¹; kon [6]: 2.14e+06 M⁻¹ s⁻¹; t½ [6]: 193 s; relative biological activity [%] [7]: 838% |
| B8 | 0.0031 | 675000 | – | t1/2 (S) [1]: 224 s |
| B9 | – | – | – | Kd [2]: 49 nM; koff [2]: 0.0135 s⁻¹; kon [2]: 275000 M⁻¹ s⁻¹; t1/2 [2]: 51 s |
| B10 | 0.0319 | 746000 | – | t1/2 (S) [1]: 22 s |
| B11 | 0.0366 | 2.27e+06 | 19 | – |
| B12 | 0.165 | 2.4e+06 | 4 | – |
| B13 | – | – | – | koff [3]: 0.00012 s⁻¹; kon [3]: 1.83e+07 M⁻¹ s⁻¹; koff [4]: 0.00012 s⁻¹; kon [4]: 1.83e+07 M⁻¹ s⁻¹; t1/2 (S) [4]: 1.6 h |
| B14 | 0.0314 | 1.8e+06 | 22 | – |
| B15 | 0.00253 | 2.16e+06 | 274 | koff [5]: 0.00253 s⁻¹; kon [5]: 2.16e+06 M⁻¹ s⁻¹; t½ [5]: 274 s; Kd [6]: 2 nM; koff [6]: 0.00308 s⁻¹; kon [6]: 2.02e+06 M⁻¹ s⁻¹; t½ [6]: 225 s; relative biological activity [%] [7]: 706% |
| B16 | 0.0948 | 3.28e+06 | 7 | – |
| B17 | 0.259 | 1.81e+06 | 3 | – |
| B18 | 0.00225 | 753000 | 308 | – |
| B19 | 0.0371 | 2.03e+06 | 19 | – |
| B20 | 0.0383 | 1.8e+06 | 18 | – |
| B21 | – | – | – | koff [3]: 0.000167 s⁻¹; kon [3]: 2.06e+07 M⁻¹ s⁻¹; koff [4]: 0.000167 s⁻¹; kon [4]: 2.06e+07 M⁻¹ s⁻¹; t1/2 (S) [4]: 1.15 h |
| B22 | 0.031 | 2.22e+06 | 22 | koff [5]: 0.031 s⁻¹; kon [5]: 2.22e+06 M⁻¹ s⁻¹; t½ [5]: 22 s; Kd [6]: 24 nM; koff [6]: 0.0325 s⁻¹; kon [6]: 1.34e+06 M⁻¹ s⁻¹; t½ [6]: 21 s; relative biological activity [%] [7]: 128% |
| B23 | 0.0128 | 3.22e+06 | 54 | – |
